What was measured:
[1] = biological target: glycoproteins from mouse endometrioid ovarian tumors nonadherent to Con A; experiment: lectin blot of Con A-unbound mouse tissue glycoproteins with biotinylated E-PHA, densitometry (FIG. 11A lanes 3 and 4)
[2] = biological target: proteins of human ductal invasive breast carcinoma tissue (cases 10406, 10119, 11827, 2417, 2207); experiment: L-PHA binding to breast tumor tissue proteins, case 10406; scale not defined
[3] = biological target: proteins of human ductal invasive breast carcinoma tissue (cases 10406, 10119, 11827, 2417, 2207); experiment: L-PHA binding to breast tumor tissue proteins, case 2207; scale not defined
[4] = biological target: proteins of human ductal invasive breast carcinoma tissue (cases 10406, 10119, 11827, 2417, 2207); experiment: L-PHA binding to breast tumor tissue proteins, case 10119; scale not defined
[5] = biological target: proteins of human ductal invasive breast carcinoma tissue (cases 10406, 10119, 11827, 2417, 2207); experiment: L-PHA binding to breast tumor tissue proteins, case 2417; scale not defined
[6] = biological target: proteins of human ductal invasive breast carcinoma tissue (cases 10406, 10119, 11827, 2417, 2207); experiment: L-PHA binding to breast tumor tissue proteins, case 11827; scale not defined
[7] = biological target: T1, Glucose-regulated protein 78 immunoprecipitated from human ovarian cancer tissue (human, UniProt P11021 19-654); experiment: GRP78 immunoprecipitated from ovarian cancer tissue, SDS-PAGE, lectin blot
T1 construct: also called GRP78

[8] = biological target: T2, Thrombospondin 1 from serum and tissue of ovarian cancer patients (human, UniProt P07996 19-1170, limits assumed, core fucosylated N-linked glycans (inferred from AAL reactivity)); experiment: biotinylated AAL precipitation from serum, Western blot with anti-THBS1 (FIG. 19B panel 2)
T2 construct: also called THBS1; AAL-reactive THBS1

[9] = biological target: glycoproteins from human endometrioid ovarian tumors (cases 711, 741, 471) nonadherent to Con A; experiment: lectin blot of Con A-unbound glycoproteins, human case 471, biotinylated AAL, densitometry (FIG. 11B lane 4)

T1 sequence (P11021 19-654 limits assumed): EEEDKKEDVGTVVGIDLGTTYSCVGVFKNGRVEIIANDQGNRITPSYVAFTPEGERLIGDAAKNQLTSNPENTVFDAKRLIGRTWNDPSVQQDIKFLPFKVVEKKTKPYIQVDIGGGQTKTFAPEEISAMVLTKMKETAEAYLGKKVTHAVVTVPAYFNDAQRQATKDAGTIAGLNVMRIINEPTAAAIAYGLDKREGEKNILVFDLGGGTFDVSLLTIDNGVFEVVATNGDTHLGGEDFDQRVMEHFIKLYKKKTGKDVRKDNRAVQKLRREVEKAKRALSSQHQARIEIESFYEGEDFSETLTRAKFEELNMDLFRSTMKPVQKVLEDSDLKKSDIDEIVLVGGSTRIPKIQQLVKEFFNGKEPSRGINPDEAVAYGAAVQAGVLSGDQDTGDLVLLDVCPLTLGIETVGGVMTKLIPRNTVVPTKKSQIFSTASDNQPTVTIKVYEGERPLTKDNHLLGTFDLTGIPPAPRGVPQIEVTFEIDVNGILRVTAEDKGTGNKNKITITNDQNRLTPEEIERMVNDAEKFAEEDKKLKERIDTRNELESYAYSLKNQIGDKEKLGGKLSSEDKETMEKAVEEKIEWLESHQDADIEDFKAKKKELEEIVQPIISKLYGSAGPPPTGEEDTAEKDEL
T2 sequence (P07996 19-1170 limits assumed): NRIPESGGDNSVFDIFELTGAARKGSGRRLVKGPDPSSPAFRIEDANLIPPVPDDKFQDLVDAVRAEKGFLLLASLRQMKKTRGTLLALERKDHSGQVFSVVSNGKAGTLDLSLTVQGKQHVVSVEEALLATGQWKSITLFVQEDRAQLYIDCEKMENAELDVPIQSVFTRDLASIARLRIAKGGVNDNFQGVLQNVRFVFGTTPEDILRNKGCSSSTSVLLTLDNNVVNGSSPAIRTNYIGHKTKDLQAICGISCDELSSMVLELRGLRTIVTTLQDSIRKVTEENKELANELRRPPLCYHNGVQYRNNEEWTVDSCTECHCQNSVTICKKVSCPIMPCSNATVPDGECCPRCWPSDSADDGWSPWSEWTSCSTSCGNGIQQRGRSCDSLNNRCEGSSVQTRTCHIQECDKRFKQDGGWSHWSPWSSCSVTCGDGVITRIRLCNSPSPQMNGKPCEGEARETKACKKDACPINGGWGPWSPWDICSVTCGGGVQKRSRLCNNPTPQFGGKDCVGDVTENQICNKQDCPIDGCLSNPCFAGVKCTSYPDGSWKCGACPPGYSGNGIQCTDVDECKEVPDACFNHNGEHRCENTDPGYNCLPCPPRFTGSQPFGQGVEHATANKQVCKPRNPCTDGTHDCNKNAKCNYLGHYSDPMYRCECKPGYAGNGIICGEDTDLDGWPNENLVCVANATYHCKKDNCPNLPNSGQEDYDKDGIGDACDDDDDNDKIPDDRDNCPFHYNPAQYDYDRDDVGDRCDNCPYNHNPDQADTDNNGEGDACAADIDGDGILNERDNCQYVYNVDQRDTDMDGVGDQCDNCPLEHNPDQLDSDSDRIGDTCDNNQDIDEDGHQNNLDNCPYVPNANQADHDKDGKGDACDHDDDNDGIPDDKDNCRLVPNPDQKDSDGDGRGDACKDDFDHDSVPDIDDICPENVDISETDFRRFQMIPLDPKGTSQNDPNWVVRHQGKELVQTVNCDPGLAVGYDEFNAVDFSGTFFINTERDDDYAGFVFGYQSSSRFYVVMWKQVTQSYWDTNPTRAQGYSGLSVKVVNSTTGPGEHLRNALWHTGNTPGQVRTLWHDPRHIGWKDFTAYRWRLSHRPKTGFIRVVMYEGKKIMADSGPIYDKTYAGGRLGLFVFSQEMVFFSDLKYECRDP

Phaseolus vulgaris erythroagglutinin (erythroagglutinating phytohemagglutinin), biotinylated (from UniProt P05088 22-275)
level of E-PHA binding for tumor relative to normal (x relative to normal) [1]: 0.2

Phaseolus vulgaris leukoagglutinin (leukoagglutinating phytohemagglutinin), biotinylated (from UniProt P05087 21-272)
L-PHA Level [2]: 1 | L-PHA Level [3]: 9 | L-PHA Level [4]: 4 | L-PHA Level [5]: 10 | L-PHA Level [6]: 4

B1: Phaseolus vulgaris erythroagglutinin (erythroagglutinating phytohemagglutinin), biotinylated (other, Phaseolus vulgaris (red kidney bean), UniProt P05088 22-275, looked up)
chain: ASQTSFSFQRFNETNLILQRDATVSSKGQLRLTNVNDNGEPTLSSLGRAFYSAPIQIWDNTTGAVAASPTSFTFNIDVPNNSGPADGLAFVLLPVGSQPKDKGGLLGLFNNYKYDSNAHTVAVEFDTLYNVHWDPKPRHIGIDVNSIKSIKTTTWDFVKGENAEVLITYDSSTKLLVASLVYPSLKTSFIVSDTVDLKSVLPEWVIVGFTATTGITKGNVETNDILSWSFASKLSDGTTSEALNLANFALNQIL
modifications: biotinylated
notes: also called E-PHA; EPHA
binding result [7]: no binding

B2: Aleuria aurantia lectin, biotinylated (other, UniProt P18891 2-313, looked up)
chain: PTEFLYTSKIAAISWAATGGRQQRVYFQDLNGKIREAQRGGDNPWTGGSSQNVIGEAKLFSPLAAVTWKSAQGIQIRVYCVNKDNILSEFVYDGSKWITGQLGSVGVKVGSNSKLAALQWGGSESAPPNIRVYYQKSNGSGSSIHEYVWSGKWTAGASFGSTVPGTGIGATAIGPGRLRIYYQATDNKIREHCWDSNSWYVGGFSASASAGVSIAAISWGSTPNIRVYWQKGREELYEAAYGGSWNTPGQIKDASRPTPSLPDTFIAANSSGNIDISVFFQASGVSLQQWQWISGKGWSIGAVVPTGTPAGW
modifications: biotinylated
notes: Commercial fungal lectin; also called AAL
binding result [7]: no binding | binding result [8]: binds | fold increase in the level of AAL binding relative to normal [9]: 7 fold
